The supplement of paper PMC10567573

B1: ZNF75A (parent)
chain: RTHTGEQPYTCSICRRNFSRRSSL
B2: ZER1 (parent)
chain: KEMARKVIEHCSNFKEENMDTSR

Variants of: B1
Experiment: protein stability index of a GFP-peptide fusion (GPS, HEK-293T) (PSI 1-6); higher = more stable
Settings: c terminus: a fixed tail appended
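Note: lentivirally expressed fusions sorted by FACS into six bins by GFP to DsRed ratio, PSI derived from sequencing read proportions per bin multiplied by bin number.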

Protein stability index, by site and new letter:
T4: H 3.03
S23: Y 1.78, G 2.76, C 2.85
R15: D 2.02, F 1.85
N17: S 2.74, A 3.22, E 2.19, Y 2.63, G 2.75
G5: F 3.38, W 2.55, S 2.61
R16: D 1.78, Q 2.99
R21: N 2.72, T 2.84
L24: N 2.56, E 4.02, K 4.06, R 3.63
F18: G 2.38, W 2.31, A 3.47
Y9: T 2.51, W 3.02
R1: H 3.93, S 3.07, V 2.26
P8: S 2.81, V 3.4, E 3.95, W 3.05
Q7: W 2.83, S 2.24, H 2.63
C14: N 4.11
T10: M 3.48, N 2.67
R20: Q 2.13, H 2.53, D 2.46, M 2.15
S12: R 3.07, F 2.83, P 3.14, A 2.21
H3: F 3.25, I 3.08, D 3.18, N 3.82
C11: E 4.09, T 4.58, W 3.77, H 3.94, I 3.79, V 3.61
S22: W 2.42
I13: S 2.71, M 2.21, K 3.5, F 2.65, V 3.18
S19: M 2.68, H 2.62, L 2.51, Y 4.33, N 3.59
T2: V 2.88, M 2.68

Variants of: B2
Experiment: as above
Settings: c terminus: native

Protein stability index: each site, then its substitutions
K6: Q 3.73, P 4.47, L 1.52, A 3.58, I 2.36, T 2.74, S 2.96, W 2.71, E 4.5, H 3.09, G 4.21, V 2.52, M 2.14, R 2.63, N 3.89, Y 1.7, C 2.92
K1: E 4.81, F 2.86, Q 4.3, L 2.73, C 2.6, T 3.65, G 4.12, R 4.31, S 3.87, D 4.45, M 2.75
N13: H 3.53, F 2.49, Y 3.15, D 3.61, G 3.5, M 2.88, I 1.93, T 3.68, C 3.04, Q 3.07, R 3.11
E9: F 2.13, T 4.35, S 4.26, M 2.96, R 4.01, N 4.29, A 4, V 3.87, Q 4.08
R23: D 5.41, W 3.91, I 4.9, S 4.84, G 5.08, Q 5.31, T 5.01, Y 4.54, E 5.48, L 4.86, N 5.16, F 4.69, V 4.76, P 4.6
R5: D 4.9, L 2.74, F 2.48, W 1.94, V 3.14, T 3.58, S 3.81, Q 3.26, P 4.74
I8: M 3.51, H 4.29, F 3.2, K 4.91, V 4.35, P 4.7, L 3.13, Y 3.88, W 1.86, N 4.98, S 3.92, G 4.64, E 4.87
M19: V 3.77, L 3.47, E 4.15, G 3.37, K 2.81, C 3.51, T 3.92, A 3.68, S 3.63, I 4.32, D 4.46, H 3.77
S22: V 3.7, L 3.58, C 2.4, F 3.72, D 4.07, I 3.72, G 3.48, E 3.74, R 2.38, W 2.97, Q 3.72, K 2.86
C11: V 2.84, D 4.79, Q 4.43, T 4.62, H 3.87, K 4.94, E 4.45, Y 2.11, A 4.77, I 2.02, N 4.26, G 4.63
D20: K 2.29, L 1.87, Y 2.89, C 2.08, H 2.96, I 1.52, V 1.51
N18: M 3.54, D 3.52, R 2, P 3.9, Y 3.08, T 3.45, E 4.22, I 3.31, K 2.99
V7: G 5.13, Q 4.87, P 4.46, T 4.89, C 4.55, I 1.59, K 4.88, R 4.65, F 3.83, Y 2.09, L 1.92, S 4.98
E16: N 3.19, P 3.31, F 2.46, S 4.19, K 3.85, R 2.98, D 3.07, W 2.16, Y 2.37, H 2.79, A 2.9
M3: F 1.72, G 4.37, P 4.78, C 4.08, E 4.53, W 2.28, N 4.14, T 4.3, K 4.36
K15: F 3.17, H 3.52, Q 3.57, T 4.15, A 3.31, C 3.93, W 2.85, E 4.32, R 2.8, M 3.54, G 3.7, Y 3.27, N 3.64
F14: I 4.35, K 4.92, A 4.56, D 5.02, S 4.68, P 4.26, L 4.03, N 4.73, Y 3.56, Q 4.73, G 4.69, M 4.4
E17: F 2.79, N 3.55, Y 2.41, V 2.74, I 3.15, L 2.35, Q 3.19, M 3.51, T 3.45, R 2.21, A 2.98, S 3.29
A4: E 4.39, N 4.21, R 4.15, K 4.29, I 2.32, Y 2.89, G 4.45, Q 4.21, M 2.48, H 4.02, P 4.57, C 3.02
H10: I 1.94, Y 1.9, K 4.78, L 1.76, A 3.49, R 3.59, M 1.81, W 2.15, V 3.33, C 3.1, Q 3.83, F 2.78
S12: K 3.49, A 3.7, C 2.98, N 3.95, M 2.54, D 4.24, P 4.37, Y 2.73, T 3.59, I 2.56, H 3.66, F 2.77, L 2.45, V 2.96
T21: N 4.48, S 4.65, L 3.26, Q 3.84, D 5.16, Y 2.13, M 4.41, R 1.65, G 5.12
E2: T 3.39, K 3.44, H 3.12, P 4.13, A 3.23, C 3.12, I 3.27, R 3.57, Q 3.53, D 3.25, W 2.01
